Ends that are not written are not given here.
How the values were obtained:
[1] = target: T1, Human hepcidin peptide (hepcidin-25) (human); test: antibody titering ELISA, hepcidin 100 ng/well on plate, HRP-goat anti-mouse IgG; antibody 100 ng/well
T1 construct: Synthetic 25 aa peptide; also called hep-25; Hep-25
T1 peptide: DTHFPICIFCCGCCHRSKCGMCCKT

[2] = target: T1, Human hepcidin peptide (hepcidin-25); test: cell-based or functional assay
[3] = target: T1, Human hepcidin peptide (hepcidin-25); test: cell-based or functional assay
[4] = target: T2, NT-biotin hepcidin-25 (human, NT-biotin (biotin at the N-terminus)); test: SPR (Biacore 3000, CM5 chip, 25 °C): biotinylated peptide captured on immobilised neutravidin, MAb 583 injected at 5 µg/ml (33.5 nM per the table); column head 'Kd (1/s)'
T2 construct: also called NT-biotin hepcidin-25 tracer; NT-Bio Tracer
T2 peptide: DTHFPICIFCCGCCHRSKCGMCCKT

[5] = target: T3, K18-biotin hepcidin-25 (human, K18-biotin (biotin on Lys 18)); test: as above
T3 construct: also called K18-biotin hepcidin-25 tracer
T3 peptide: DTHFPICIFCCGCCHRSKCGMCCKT

[6] = target: T4, K24-biotin hepcidin-25 (human, K24-biotin (biotin on Lys 24)); test: SPR, Biacore 3000, biotin peptide on neutravidin CM5 chip, MAb 583 injected at 24 µg/ml, 25 C; hepcidin-25 biotinylated at K24 (K24-biotin) on the chip; MAb 583 at 24 µg/ml
T4 construct: also called K24-biotin hepcidin-25 tracer
T4 peptide: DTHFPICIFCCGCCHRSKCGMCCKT
Method: (§1) Biotinylated hepcidin peptides (NT-biotin-hepcidin-25, K18-biotin-hepcidin-25 and K24-biotin-hepcidin-25) were immobilized in flow cells 2-4 (one peptide species per flow cell) by injecting individual peptides at a concentration of 200 μg/ml at a flow rate of 5 μl/min, for 20 min.
(§2) After 3 minutes, injection was stopped and dissociation was followed for 6 min. Regeneration was performed by injecting 10 mM glycine HCl, pH 1.5 at a flow rate of 10 μl/min for 1 min.

[7] = target: T2, NT-biotin hepcidin-25; test: SPR (Biacore 3000, CM5 chip, 25 °C): biotinylated peptide captured on immobilised neutravidin, MAb 583 injected at 5 µg/ml (33.5 nM per the table); column head 'Ka (1/Ms)'
[8] = target: T3, K18-biotin hepcidin-25; test: as above
[9] = target: T1, Human hepcidin peptide (hepcidin-25); test: antibody titering ELISA, hepcidin 100 ng/well on plate, HRP-goat anti-mouse IgG; antibody 25 ng/well
[10] = target: T5, Human hepcidin 10-25 peptide (human, also: oxidized peptide); test: competition ELISA on MAb 583 coated plate, NT-biotin hepcidin-25 tracer
T5 construct: also called hep 10-25; Hep 10-25
T5 peptide: CCGCCHRSKCGMCCKT
Description: (§3) Competition was detected by streptavidin-HRP with the substrate tetramethylbenzidine; the color reaction was stopped with 0.5 N H₂SO₄ and the optical density of the solution read at 450 nm wavelength.
(§4) Binding of biotinylated hepcidin-25 analogs and detection of bound NT-biotin hepcidin-25 was used to detect relative degree of binding of each of the hepcidin peptides relative to hepcidin-25 (data not shown).

[11] = target: T6, Mouse hepcidin-1 peptide (mouse); test: as above
T6 construct: also called mouse hepcidin-25; murine hepcidin-1
T6 peptide: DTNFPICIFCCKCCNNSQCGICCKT
Description: as §3, §4

[12] = target: T3, K18-biotin hepcidin-25; test: SPR, Biacore 3000, biotin peptide on neutravidin CM5 chip, MAb 583 injected at 24 µg/ml, 25 C; hepcidin-25 biotinylated at K18 (K18-biotin) on the chip; MAb 583 at 24 µg/ml
Method: as §1, §2

[13] = target: T2, NT-biotin hepcidin-25; test: SPR (Biacore 3000, CM5 chip, 25 °C): biotinylated peptide captured on immobilised neutravidin, MAb 583 injected at 5 µg/ml (33.5 nM per the table)
[14] = target: T3, K18-biotin hepcidin-25; test: as above
[15] = target: T2, NT-biotin hepcidin-25; test: SPR, Biacore 3000, biotin peptide on neutravidin CM5 chip, MAb 583 injected at 24 µg/ml, 25 C
Method: as §1, §2

[16] = target: T3, K18-biotin hepcidin-25; test: as above
Method: as §1, §2

[17] = target: T4, K24-biotin hepcidin-25; test: as above
Method: as §1, §2

[18] = target: T1, Human hepcidin peptide (hepcidin-25); test: antibody titering ELISA, hepcidin 100 ng/well on plate, HRP-goat anti-mouse IgG; antibody 12.5 ng/well
[19] = target: T1, Human hepcidin peptide (hepcidin-25); test: antibody titering ELISA, hepcidin 100 ng/well on plate, HRP-goat anti-mouse IgG; antibody 50 ng/well
[20] = target: T2, NT-biotin hepcidin-25; test: SPR, Biacore, biotin peptide on neutravidin chip, MAb 583 at 5 µg/ml
[21] = target: T3, K18-biotin hepcidin-25; test: as above
[22] = target: T2, NT-biotin hepcidin-25; test: SPR, Biacore 3000, biotin peptide on neutravidin CM5 chip, MAb 583 injected at 24 µg/ml, 25 C; hepcidin-25 biotinylated at the N-terminus (NT-biotin) on the chip; MAb 583 at 24 µg/ml
Method: as §1, §2

B1: MAb 583 (antibody, V domains shown)
VH: QIQLVQSGPELKKPGETVKISCKASGYTFTNYGMNWVKQAPGKGLKWMGWINTYTGEPTYADDFKGRFAFSLETSASTAYLQINNLKNEDTATYFCTTYATSWYWGQG
VL: DIVLTQSPASLAVSLGQRATISCRASESVDSYGNSFMHWYQQKPGQPPKLLIYRASNLESGIPARFSGSGSRTDFTLTINPVEADDVATYYCQQSNEDLTFG
notes: Murine monoclonal, Protein A purified
- OD 450 nm [1]: 4 OD450
- EC50 (read off the curve); GFP fluorescence (% of untreated sample) of Fpn-GFP HEK cells, 37 nM hepcidin-25 present [2]: ~2 nM
- IC50 (read off the curve); normalized ferritin (% of uninduced sample) of Fpn-GFP HEK cells, 37 nM hepcidin-25 present [3]: ~2 nM
- koff [4]: 2.43e-05 s⁻¹
- koff [5]: 1.4e-05 s⁻¹
- Kd [6]: 5.54 nM
- kon [7]: 1.33e+06 M⁻¹ s⁻¹
- kon [8]: 1.88e+06 M⁻¹ s⁻¹
- OD 450 nm [9]: 4 OD450
- binding result [10]: no binding (tested: up to 2000 ng/ml)
- binding result [11]: no binding
- Kd [12]: 0.878 nM
- Ka [13]: 5.47e+10 M⁻¹
- Kd [13]: 0.0183 nM
- Ka [14]: 1.34e+11 M⁻¹
- Kd [14]: 0.00745 nM
- Ka [15]: 1.94e+10 M⁻¹
- Req [15]: 78.8 RU
- kobs [15]: 0.00977 s⁻¹
- koff [15]: 3.15e-06 s⁻¹
- kon [15]: 61100 M⁻¹ s⁻¹
- Ka [16]: 1.14e+09 M⁻¹
- Req [16]: 126 RU
- kobs [16]: 0.0102 s⁻¹
- koff [16]: 5.59e-05 s⁻¹
- kon [16]: 63700 M⁻¹ s⁻¹
- Ka [17]: 1.8e+08 M⁻¹
- Req [17]: 63.1 RU
- kobs [17]: 0.0086 s⁻¹
- koff [17]: 0.000288 s⁻¹
- kon [17]: 52000 M⁻¹ s⁻¹
- OD 450 nm [18]: 4 OD450
- OD 450 nm [19]: 4 OD450
- Kd [20]: ~0.018 nM
- Kd [21]: ~0.0075 nM
- Kd [22]: 0.0516 nM

Source: patent publication US20170247448A1 (INTRINSIC LIFESCIENCES, published 2017)
